Test results: article PMC4837482, “The complex binding mode of the peptide hormone H2 relaxin to its receptor RXFP1” (Nature Communications, 2016)
Substitutions are numbered along the chain they refer to. Numbers in names are those of the source. Entries after “also recorded” stand apart in the source; their conditions may differ. Values belong to the molecule of their own block, whether it stands above or below them. Where no end group is shown, it is not given here.

Columns and labels:
RXFP1 [1] = biological target: T1, RXFP1 (Homo sapiens, UniProt Q9HBX9); conditions: versus H2 relaxin; cited from earlier work
T1 construct: transiently transfected human embryonic kidney (HEK) 293T cells expressing full-length RXFP1 and mutants; expressed in transfected cells; host or cells: HEK293T
T1 sequence (Q9HBX9 1-757): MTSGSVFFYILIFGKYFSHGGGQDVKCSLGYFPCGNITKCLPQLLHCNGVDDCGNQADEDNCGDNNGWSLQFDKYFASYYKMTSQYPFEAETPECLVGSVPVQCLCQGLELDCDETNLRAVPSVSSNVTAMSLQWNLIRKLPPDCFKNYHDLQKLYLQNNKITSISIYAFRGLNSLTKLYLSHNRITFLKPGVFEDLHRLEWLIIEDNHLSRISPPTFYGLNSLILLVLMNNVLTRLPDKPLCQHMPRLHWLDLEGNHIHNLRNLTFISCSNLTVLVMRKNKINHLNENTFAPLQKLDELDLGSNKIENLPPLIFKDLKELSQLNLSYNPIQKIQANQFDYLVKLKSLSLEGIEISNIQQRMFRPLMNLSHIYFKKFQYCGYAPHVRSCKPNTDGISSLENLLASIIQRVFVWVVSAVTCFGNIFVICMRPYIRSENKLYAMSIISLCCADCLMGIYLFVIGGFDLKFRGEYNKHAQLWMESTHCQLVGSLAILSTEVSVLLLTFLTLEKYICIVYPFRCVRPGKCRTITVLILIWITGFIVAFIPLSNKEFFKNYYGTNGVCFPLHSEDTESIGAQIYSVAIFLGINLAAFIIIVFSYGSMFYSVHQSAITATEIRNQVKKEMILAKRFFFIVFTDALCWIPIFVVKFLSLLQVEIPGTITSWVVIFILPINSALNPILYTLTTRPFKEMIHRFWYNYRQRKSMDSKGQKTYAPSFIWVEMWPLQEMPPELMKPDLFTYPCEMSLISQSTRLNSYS

RXFP1 [2] = biological target: T1, RXFP1; conditions: versus H2 relaxin; cited from earlier work; remark: listed apart in the source
RXFP1(1–72) = biological target: T2, RXFP1(1–72) (Homo sapiens, UniProt Q9HBX9); assay: NMR competition titration against the RXFP1(1–72)/Mn2+-DTPA-(A)-H2 complex; format: binding; conditions: 50 μM peptide added to 50 μM 15N-RXFP1(1–72) with 0.2 μM Mn2+-DTPA-(A)-H2; pH 6.8, 25 °C
T2 construct: GB1 (N, cleaved yes); made in house; host or cells: E. coli BL21 (DE3) trxB
T2 sequence (Q9HBX9 23-94 limits assumed): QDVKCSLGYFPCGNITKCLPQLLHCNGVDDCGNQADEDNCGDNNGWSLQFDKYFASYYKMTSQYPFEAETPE
Description: All RXFP1(1–72) protein samples for nuclear magnetic resonance (NMR) experiments were prepared from lyophilized protein in 50 mM imidazole, with 10 mM CaCl2 at pH 6.8. Recombinant human gene-2 H2 relaxin peptide was kindly provided by Corthera. EL1^(475–486)/EL2-GB1 samples were prepared as described above. Titrant and titrand were dialyzed in the same buffer in the same vessel. All NMR experiments were routinely collected at 25 °C on a 700-MHz Bruker Avance HDIII spectrometer equipped with triple resonance cryoprobe. […] Backbone assignments were made from 3D HNCACB, HNCOCACB, HNCO and HNCACO experiments. Spectra were processed using NMRPipe (ref. [43]) and typically Fourier-transformed after applying Lorentz-to-Gauss window functions in the direct dimension and cosine bells in the indirect dimensions. NMR data were analysed using SPARKY (Goddard, T.D. and Kneller, D.G., University of California, San Francisco). Assignments of the mutant RXFP1(1–72) proteins were determined from the assignments of wild-type RXFP1(1–72).
^15N{^1H}-NOE experiments[45] (2,048 × 256 data points) were acquired with a saturation pulse of 4 s and an additional relaxation delay of 5 s. Sample conditions were 150 μM RXFP(1–72) or mutants either without or with 450 μM H2 relaxin. Binding to Mn^2+-DTPA-(A)-H2 to RXFP1(1–72) and mutants was monitored by recording 2D ^1H-^15N HSQC (2,048 × 256 data points) for 0.2 μM Mn^2+-DTPA-(A)-H2 against 50 μM RXFP1(1–72). H2 relaxin and its truncates such as A-chain (9–24), H2/I5 chimera and Phe23Ala A-chain mutant H2 were titrated into a complex of 50 μM RXFP1(1–72) and 0.2 μM Mn^2+-DTPA-(A)-H2 with increasing concentrations ranging from 5 to 50 μM.

[3] = biological target: T3, Europium-labelled H2 relaxin (human, UniProt P04090 162-185; P04090 25-53, DTPA cage loaded with Eu^3+ on the N-terminus of the A-chain); assay: europium-labelled ligand saturation binding on cells (time-resolved fluorescence); HEK293T cells transiently transfected with receptor, 96-well plates; increasing Eu-H2 relaxin (maximum 15 nM) with or without 1 μM unlabelled H2 relaxin, 1 h, room temperature; 20 mM HEPES pH 7.5, 1.5 mM CaCl2, 50 mM NaCl, 0.01% NaN3, 1% BSA; one-site fit; conditions: one partner purified
T3 construct: A chain of human gene-2 (H2) relaxin; numbers count on: the A chain; B chain of human gene-2 (H2) relaxin; numbers count on: the B chain; also called Eu-H2 relaxin; Eu-H2

Molecule: A-chain (9–24) H2: N-terminally truncated A-chain (9–24) H2 peptide (KCCHVGCTKRSLARFC; ends and bridges not checked; cysteine pairing not given here; UniProt P04090 170-185, looked up, fragment)
potency for RXFP1 (RXFP1 [1]): decreased
affinity for RXFP1 (RXFP1 [2]): decreased
competition with Mn2+-DTPA-(A)-H2 for RXFP1(1–72) (peak intensities, chemical shifts) (RXFP1(1–72)): the gain in peak intensity was not as pronounced as that recorded with native H2 peptide

competition with Mn2+-DTPA-(A)-H2 for RXFP1(1–72) (peak intensities, chemical shifts) (RXFP1(1–72)): did not compete
Molecule: F23A: H2 relaxin mutant F23A; destabilizes the secondary structure of the A-chain (QLYSALANKCCHVGCTKRSLARAC; ends and bridges not checked; cysteine pairing not given here; UniProt P04090 162-185, looked up, variant F23A)
activation of RXFP1 (RXFP1 [1]): significant loss
binding affinity for RXFP1 (RXFP1 [2]): significant loss

Molecule: H2-(B1–25): B-chain truncate of H2 relaxin (DSWMEEVIKLCGRELVRAQIAICGM; ends and bridges not checked; cysteine pairing not given here; UniProt P04090 25-49, looked up, fragment)
potency at RXFP1 (RXFP1 [1]): retain their native affinity and potency
affinity at RXFP1 (RXFP1 [2]): retain their native affinity and potency
competition with Mn2+-DTPA-(A)-H2 for RXFP1(1–72) (peak intensities, chemical shifts) (RXFP1(1–72)): did not detect any significant difference in binding

Molecule: H2-(B5–29): B-chain truncate of H2 relaxin (EEVIKLCGRELVRAQIAICGMSTWS; ends and bridges not checked; cysteine pairing not given here; UniProt P04090 29-53, looked up, fragment)
potency at RXFP1 (RXFP1 [1]): retain their native affinity and potency
affinity at RXFP1 (RXFP1 [2]): retain their native affinity and potency
competition with Mn2+-DTPA-(A)-H2 for RXFP1(1–72) (peak intensities, chemical shifts) (RXFP1(1–72)): did not detect any significant difference in binding

Molecule: H2/I5-2: A-chain H2 chimeric analogue; His12 and Val13 (H2) replaced by Thr12 and Asp13 (INSL5) (QLYSALANKCCTDGCTKRSLARFC; ends and bridges not checked; cysteine pairing not given here; UniProt P04090 162-185, looked up, variant H12T V13D)
activation of RXFP1 (RXFP1 [1]): retains the ability to activate
binding affinity for RXFP1 (RXFP1 [2]): modest loss of binding
competition with Mn2+-DTPA-(A)-H2 for RXFP1(1–72) (peak intensities, chemical shifts) (RXFP1(1–72)): no changes were observed in peak intensities or chemical shifts; also recorded: could not bind

Kd [3]: > 20 nM
B1: RXFP1 G41A/D42A, full length (receptor)
chain: QDVKCSLGYFPCGNITKCLPQLLHCNGVDDCGNQADEDNCAANNGWSLQFDKYFASYYKMTSQYPFEAETPECLVGSVPVQCLCQGLELDCDETNLRAVPSVSSNVTAMSLQWNLIRKLPPDCFKNYHDLQKLYLQNNKITSISIYAFRGLNSLTKLYLSHNRITFLKPGVFEDLHRLEWLIIEDNHLSRISPPTFYGLNSLILLVLMNNVLTRLPDKPLCQHMPRLHWLDLEGNHIHNLRNLTFISCSNLTVLVMRKNKINHLNENTFAPLQKLDELDLGSNKIENLPPLIFKDLKELSQLNLSYNPIQKIQANQFDYLVKLKSLSLEGIEISNIQQRMFRPLMNLSHIYFKKFQYCGYAPHVRSCKPNTDGISSLENLLASIIQRVFVWVVSAVTCFGNIFVICMRPYIRSENKLYAMSIISLCCADCLMGIYLFVIGGFDLKFRGEYNKHAQLWMESTHCQLVGSLAILSTEVSVLLLTFLTLEKYICIVYPFRCVRPGKCRTITVLILIWITGFIVAFIPLSNKEFFKNYYGTNGVCFPLHSEDTESIGAQIYSVAIFLGINLAAFIIIVFSYGSMFYSVHQSAITATEIRNQVKKEMILAKRFFFIVFTDALCWIPIFVVKFLSLLQVEIPGTITSWVVIFILPINSALNPILYTLTTRPFKEMIHRFWYNYRQRKSMDSKGQKTYAPSFIWVEMWPLQEMPPELMKPDLFTYPCEMSLISQSTRLNSYS

Kd [3]: > 20 nM
B2: RXFP1 G45A/W46A, full length (receptor)
chain: B1 chain with A41G, A42D, G45A, W46A
